Earlier results, collected in PMC1087504.

Target: 3 beta-hydroxysteroid dehydrogenase (Bos taurus) (UniProt P14893)
Sequence of UniProt P14893 (P14893 whole entry): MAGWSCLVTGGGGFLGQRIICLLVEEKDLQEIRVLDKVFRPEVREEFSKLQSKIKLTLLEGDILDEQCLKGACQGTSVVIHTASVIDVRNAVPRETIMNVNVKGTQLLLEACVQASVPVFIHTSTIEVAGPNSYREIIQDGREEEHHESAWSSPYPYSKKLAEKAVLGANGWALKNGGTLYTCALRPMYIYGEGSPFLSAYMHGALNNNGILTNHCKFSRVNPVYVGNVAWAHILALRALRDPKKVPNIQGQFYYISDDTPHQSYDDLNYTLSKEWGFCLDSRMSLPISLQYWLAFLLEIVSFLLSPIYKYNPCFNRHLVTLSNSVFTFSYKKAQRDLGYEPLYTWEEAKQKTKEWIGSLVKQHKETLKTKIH

P450scc (from UniProt P00189)
Kd: 120 nM
